Test results: US20100092465A1, “TREATMENT OF GRAFT-VERSUS-HOST DISEASE” (priority 2006, published 2010)
Values joined by “and” are separate entries in the source; they are usually repeats but may differ in a detail not shown here. Equal values may be shown once.

What was measured:
[1] = molecular target: IL-27 receptor on mouse spleen cells (mouse) (UniProt O70394); experiment: cell-based or functional assay
[2] = molecular target: IL-27 receptor on total human PBMCs (human) (UniProt Q6UWB1); experiment: cell-based or functional assay
[3] = molecular target: IL-27 receptor (IL-27RA and gp130) on BHK-mIL-27R cells (mouse) (UniProt O70394); experiment: saturation binding of 125I-labeled ligand to BHK-mIL-27R cells; average of three studies
[4] = molecular target: IL-27 receptor (IL-27RA and gp130) on BHK-mIL-27R cells (mouse) (UniProt O70394); experiment: saturation binding of 125I-labeled ligand to BHK-mIL-27R cells, 4 hours on ice, gamma counter
[5] = molecular target: single-chain human IL-27 (amino-terminal peptide tag, EBI3, polypeptide linker, IL-27 p28) (human) (UniProt Q14213); experiment: cell-based or functional assay
[6] = molecular target: single-chain mouse IL-27 (FLAG tag, mouse EBI3, 17 amino acid linker, mouse IL-27 p28) (mouse) (UniProt O35228); experiment: cell-based or functional assay
[7] = molecular target: single-chain mouse IL-27 (FLAG tag, mouse EBI3, 17 amino acid linker, mouse IL-27 p28) (mouse) (UniProt O35228); experiment: SPR, BIACORE 3000; receptor captured by anti-mouse Fc antibody, ligand (lot A1418F) injected; 1:1 model with mass transport
[8] = molecular target: single-chain mouse IL-27 (FLAG tag, mouse EBI3, 17 amino acid linker, mouse IL-27 p28) (mouse) (UniProt O35228); experiment: SPR, BIACORE 3000; receptor amine-coupled to the chip, ligand (A1426F) injected; 1:1 model with mass transport
[9] = molecular target: single-chain human IL-27 (amino-terminal peptide tag, EBI3, polypeptide linker, IL-27 p28) (human) (UniProt Q14213); experiment: SPR, BIACORE 3000; receptor amine-coupled to the chip, ligand (A1534F) injected; 1:1 model with mass transport

Sequence of IL-27 receptor on total human PBMCs (human) (Q6UWB1 33-636, chain 1 of 2): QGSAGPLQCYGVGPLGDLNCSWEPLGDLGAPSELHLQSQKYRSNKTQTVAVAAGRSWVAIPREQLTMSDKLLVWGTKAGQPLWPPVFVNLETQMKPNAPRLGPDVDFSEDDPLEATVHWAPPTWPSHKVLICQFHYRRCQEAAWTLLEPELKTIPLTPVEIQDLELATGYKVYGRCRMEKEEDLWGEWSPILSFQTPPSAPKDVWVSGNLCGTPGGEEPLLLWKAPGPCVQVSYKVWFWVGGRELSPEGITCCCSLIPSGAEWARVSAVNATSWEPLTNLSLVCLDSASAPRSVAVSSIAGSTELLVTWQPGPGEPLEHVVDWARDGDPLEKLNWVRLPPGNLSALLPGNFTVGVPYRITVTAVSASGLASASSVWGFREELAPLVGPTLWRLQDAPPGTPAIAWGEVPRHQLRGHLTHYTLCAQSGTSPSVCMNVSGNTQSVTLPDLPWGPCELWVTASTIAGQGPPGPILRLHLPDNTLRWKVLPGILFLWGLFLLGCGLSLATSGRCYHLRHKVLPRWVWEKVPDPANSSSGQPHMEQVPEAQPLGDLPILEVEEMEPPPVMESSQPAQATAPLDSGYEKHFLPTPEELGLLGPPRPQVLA
Sequence of IL-27 receptor on total human PBMCs (human) (P40189 23-918, chain 2 of 2, further chain): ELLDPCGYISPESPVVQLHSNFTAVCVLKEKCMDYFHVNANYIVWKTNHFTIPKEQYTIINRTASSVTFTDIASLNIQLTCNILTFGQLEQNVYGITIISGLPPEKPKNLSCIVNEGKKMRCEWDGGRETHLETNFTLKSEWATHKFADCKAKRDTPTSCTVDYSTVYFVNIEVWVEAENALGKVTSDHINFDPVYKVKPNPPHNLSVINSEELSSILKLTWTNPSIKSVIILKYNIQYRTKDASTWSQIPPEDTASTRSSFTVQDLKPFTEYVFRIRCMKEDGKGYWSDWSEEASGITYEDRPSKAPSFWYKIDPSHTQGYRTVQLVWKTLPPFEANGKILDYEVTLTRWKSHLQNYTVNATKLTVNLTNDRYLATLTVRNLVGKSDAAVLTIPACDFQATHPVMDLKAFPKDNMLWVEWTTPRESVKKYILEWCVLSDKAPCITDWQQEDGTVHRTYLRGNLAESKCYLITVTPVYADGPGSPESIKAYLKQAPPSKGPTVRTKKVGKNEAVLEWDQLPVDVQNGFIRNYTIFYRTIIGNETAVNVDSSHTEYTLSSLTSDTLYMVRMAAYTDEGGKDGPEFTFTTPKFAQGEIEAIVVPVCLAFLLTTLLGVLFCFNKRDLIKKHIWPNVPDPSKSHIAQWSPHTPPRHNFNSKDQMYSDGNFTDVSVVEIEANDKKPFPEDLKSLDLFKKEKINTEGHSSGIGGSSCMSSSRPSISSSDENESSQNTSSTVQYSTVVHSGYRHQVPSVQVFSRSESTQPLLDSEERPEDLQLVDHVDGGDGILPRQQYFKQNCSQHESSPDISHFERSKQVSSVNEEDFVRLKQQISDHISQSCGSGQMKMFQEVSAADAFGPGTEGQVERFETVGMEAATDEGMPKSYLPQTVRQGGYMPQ
Sequence of IL-27 receptor on mouse spleen cells (mouse) (O70394 25-623, chain 1 of 2): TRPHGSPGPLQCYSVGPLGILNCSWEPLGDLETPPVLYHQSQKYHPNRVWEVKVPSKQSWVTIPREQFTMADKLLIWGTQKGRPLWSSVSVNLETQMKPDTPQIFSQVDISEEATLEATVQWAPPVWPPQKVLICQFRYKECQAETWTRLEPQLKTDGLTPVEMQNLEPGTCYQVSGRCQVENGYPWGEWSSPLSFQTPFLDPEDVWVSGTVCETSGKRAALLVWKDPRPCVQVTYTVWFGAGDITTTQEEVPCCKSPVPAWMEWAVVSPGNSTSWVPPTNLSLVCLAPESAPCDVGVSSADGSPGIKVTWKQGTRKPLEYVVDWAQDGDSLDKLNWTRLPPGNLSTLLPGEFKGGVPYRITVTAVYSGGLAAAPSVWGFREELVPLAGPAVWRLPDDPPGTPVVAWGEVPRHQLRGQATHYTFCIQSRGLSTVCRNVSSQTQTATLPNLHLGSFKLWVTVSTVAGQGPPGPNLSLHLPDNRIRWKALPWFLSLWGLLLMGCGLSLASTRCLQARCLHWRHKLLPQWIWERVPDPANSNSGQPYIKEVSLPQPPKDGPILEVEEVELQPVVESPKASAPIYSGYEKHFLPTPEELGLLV
Sequence of IL-27 receptor on mouse spleen cells (mouse) (Q00560 23-917, chain 2 of 2, further chain): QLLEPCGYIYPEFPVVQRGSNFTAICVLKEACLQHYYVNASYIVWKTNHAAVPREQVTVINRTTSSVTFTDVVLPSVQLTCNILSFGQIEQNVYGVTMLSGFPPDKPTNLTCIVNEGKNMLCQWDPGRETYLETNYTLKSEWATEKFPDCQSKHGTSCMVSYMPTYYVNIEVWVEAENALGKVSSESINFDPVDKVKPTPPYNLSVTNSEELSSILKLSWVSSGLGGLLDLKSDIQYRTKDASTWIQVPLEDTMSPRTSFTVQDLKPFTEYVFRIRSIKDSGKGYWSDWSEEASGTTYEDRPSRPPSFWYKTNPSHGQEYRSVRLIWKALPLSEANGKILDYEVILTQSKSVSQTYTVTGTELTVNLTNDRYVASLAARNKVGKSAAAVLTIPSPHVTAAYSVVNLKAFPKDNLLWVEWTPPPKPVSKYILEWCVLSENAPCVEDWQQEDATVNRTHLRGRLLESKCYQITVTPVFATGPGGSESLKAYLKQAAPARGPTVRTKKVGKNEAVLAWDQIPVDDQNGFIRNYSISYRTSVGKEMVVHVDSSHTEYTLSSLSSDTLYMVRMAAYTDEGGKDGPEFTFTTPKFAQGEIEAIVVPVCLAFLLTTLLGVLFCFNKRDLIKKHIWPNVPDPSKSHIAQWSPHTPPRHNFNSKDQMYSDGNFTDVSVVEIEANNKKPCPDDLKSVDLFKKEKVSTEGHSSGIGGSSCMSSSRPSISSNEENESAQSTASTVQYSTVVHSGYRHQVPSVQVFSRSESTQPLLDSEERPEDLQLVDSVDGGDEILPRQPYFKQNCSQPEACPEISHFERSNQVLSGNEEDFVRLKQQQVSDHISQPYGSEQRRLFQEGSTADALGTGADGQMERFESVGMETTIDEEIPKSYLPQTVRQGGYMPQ

single-chain mouse IL-27 (FLAG tag, mouse EBI3, 17 amino acid linker, mouse IL-27 p28) (from UniProt O35228 19-228; Q8K3I6 29-234) (ligand)
EC90 concentration, STAT3 phosphorylation (BIO-PLEX Phospho-Stat3 assay), mouse spleens [1]: 0.2 nM | EC90 concentration, STAT3 phosphorylation (BIO-PLEX Phospho-Stat3 assay), total human PBMCs [2]: 2 nM | Kd [3]: 1.14 nM | Kd [4]: 0.9 nM and 1.35 nM and 1.16 nM

IL27RAm(mFc1): extracellular domain of mouse IL27RA fused to a wild type BALB/c mouse gamma2a constant region Fc tag (from UniProt O70394 25-510) (Fc fusion)
IC50 (nM), phospho-STAT3 in mouse spleens, ligand at EC90 [5]: 9.3 nM | IC50 (nM), phospho-STAT3 in total human PBMCs, ligand at EC90 [5]: 1370 nM | IC50 (nM), phospho-STAT3 in mouse spleens, ligand at EC90 [6]: 0.18 nM | IC50 (nM), phospho-STAT3 in total human PBMCs, ligand at EC90 [6]: 4.83 nM | IL-2 concentration, 48 hr, mIL-27RA 5 ug/ml + IL-27 [6]: 4020 pg/mL | IL-2 concentration, 48 hr, mIL-27RA 10 ug/ml + IL-27 [6]: 5220 pg/mL | IL-2 concentration, 48 hr, mIL-27RA 10 ug/ml + IL-27 (second row) [6]: 4920 pg/mL | IL-2 concentration, 72 hr, mIL-27RA 5 ug/ml + IL-27 [6]: 5740 pg/mL | IL-2 concentration, 72 hr, mIL-27RA 10 ug/ml + IL-27 [6]: 6700 pg/mL | IL-2 concentration, 72 hr, mIL-27RA 10 ug/ml + IL-27 (second row) [6]: 12200 pg/mL | block of the ability of mouse IL-27 to inhibit IL-2 production by naive CD4 T cells [6]: 50% | koff [7]: 0.0012 s⁻¹ | kon [7]: 1e+07 M⁻¹ s⁻¹

single-chain human IL-27 (amino-terminal peptide tag, EBI3, polypeptide linker, IL-27 p28) (from UniProt Q14213 21-229; Q8NEV9 29-243) (ligand)
EC90 concentration, STAT3 phosphorylation (BIO-PLEX Phospho-Stat3 assay), mouse spleens [1]: 2 nM | EC90 concentration, STAT3 phosphorylation (BIO-PLEX Phospho-Stat3 assay), total human PBMCs [2]: 2 nM

human IL27RA-Fc5 fusion protein (Fc fusion)
IC50 (nM), phospho-STAT3 in mouse spleens, ligand at EC90 [5]: 0.32 nM | IC50 (nM), phospho-STAT3 in total human PBMCs, ligand at EC90 [5]: 0.95 nM | IC50 (nM), phospho-STAT3 in mouse spleens, ligand at EC90 [6]: 0.14 nM | IC50 (nM), phospho-STAT3 in total human PBMCs, ligand at EC90 [6]: 2.97 nM | IL-2 concentration, 48 hr, hIL-27RA 5 ug/ml + IL-27 [6]: 5780 pg/mL | IL-2 concentration, 48 hr, hIL-27RA 10 ug/ml + IL-27 [6]: 5770 pg/mL | IL-2 concentration, 48 hr, hIL-27RA 10 ug/ml + IL-27 (second row) [6]: 5330 pg/mL | IL-2 concentration, 72 hr, hIL-27RA 5 ug/ml + IL-27 [6]: 1870 pg/mL | IL-2 concentration, 72 hr, hIL-27RA 10 ug/ml + IL-27 [6]: 28600 pg/mL | IL-2 concentration, 72 hr, hIL-27RA 10 ug/ml + IL-27 (second row) [6]: 17500 pg/mL | block of the ability of mouse IL-27 to inhibit IL-2 production by naive CD4 T cells [6]: 50% | koff [8]: 0.0018 s⁻¹ | kon [8]: 8.1e+06 M⁻¹ s⁻¹ | koff [9]: 0.0019 s⁻¹ | kon [9]: 1e+07 M⁻¹ s⁻¹
